The record followed here is patent US20030105278A1 (MERK, published 2003).

Experiment [1] addresses T1, human MCH receptor (membranes from a stable CHO or HEK-293 cell line) (human, UniProt Q99705 1-353).
T1 construct: whole, on cells; also called cloned human MCH receptor (CHO clone)
As to the kind of experiment: competition vs [125I]-human MCH (Phe13,Tyr19); human MCH receptor cell membranes (Example 3).

The target of experiment [2] is T2, human MCH receptor expressed from the open reading frame cDNA SEQ. ID. NO. 1 in 293-AEQ17 cells (human, UniProt Q99705 1-353). The experiment in a line: cell-based or functional assay.
Experiment [3] concerns the target T2, human MCH receptor expressed from the …. As to the kind of experiment: cell-based or functional assay. The source holds these as a separate data set.
The target of experiment [4] is T1, human MCH receptor (membranes from a …). The experiment in a line: SPA competition vs [125I]-human MCH (Phe13,Tyr19); human MCH receptor cell membranes.
Experiment [5] deals with T2, human MCH receptor expressed from the …. The experiment in a line: cell-based or functional assay. The source holds these as a separate data set.
The target is the same in experiment [6]. As to the kind of experiment: cell-based or functional assay. The source holds these as a separate data set.
For experiment [7] the target is unchanged. The experiment in a line: cell-based or functional assay. This is another data set of the same source.
Experiment [8] has the same target. The experiment in a line: cell-based or functional assay. The source holds these as a separate data set.
Experiment [9] has the same target. The experiment in a line: cell-based or functional assay. The source holds these as a separate data set.
Experiment [10] deals with T1, human MCH receptor (membranes from a …). As to the kind of experiment: competition vs [125I]-human MCH (Phe13,Tyr19); human MCH receptor cell membranes (Example 3). This is another data set of the same source.
Experiment [11] has the same target. The experiment is described as above. The source holds these as a separate data set.
The target is the same in experiment [12]. The description is as above. The source holds these as a separate data set.
Experiment [13] has the same target. The description is as above. This is another data set of the same source.
For experiment [14] the target is unchanged. Described as above. This is another data set of the same source.
The target of experiment [15] is human MCH receptor (membranes from a stable CHO or HEK-293 cell line) (human) (UniProt Q99705). The description is as above.

Like-named read-outs stand apart in the source and are kept apart here. Bridges are numbered along the chain shown (N, C = ends). Where no end group is shown, it is not given here. [ ]: non-standard residue; d: D form. Ava = NCCCCC(=O)O

T2 sequence (Q99705 whole entry): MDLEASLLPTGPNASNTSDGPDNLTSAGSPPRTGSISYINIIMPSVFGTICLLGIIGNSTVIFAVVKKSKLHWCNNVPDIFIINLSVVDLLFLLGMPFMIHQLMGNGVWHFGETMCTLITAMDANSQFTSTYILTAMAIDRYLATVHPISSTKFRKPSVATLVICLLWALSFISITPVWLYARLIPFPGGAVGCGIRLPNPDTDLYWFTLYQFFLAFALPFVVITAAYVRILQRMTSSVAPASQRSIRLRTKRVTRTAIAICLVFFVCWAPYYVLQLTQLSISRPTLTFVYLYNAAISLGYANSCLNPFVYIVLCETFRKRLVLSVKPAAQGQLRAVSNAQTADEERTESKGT
T1 sequence (Q99705 whole entry): as above
human MCH receptor (membranes from a stable CHO or HEK-293 cell line) (human), sequence (Q99705 whole entry): as above

B1: MCH analog SEQ. ID. NO. 72 (Ava^14,15) (peptide)
peptide: Ac-RCMLGRVY[Ava][Ava]C-NH2
modifications: disulfide 2-11
notes: ID; NO; 7 peptide; MCH position numbering
For the molecule B1, the IC50 (as a rule, the concentration needed to halve the response being measured) in [1] stood at 6.2 nM. Further, in experiment [2], the Activation % stood at 75% and the EC50 (in general, the concentration giving half of the maximal effect) is 406 nM.

B2: truncated MCH analog SEQ. ID. NO. 9: Ac-Cys-Met-Leu-Gly-Arg-Val-Tyr-Arg-Pro-Cys-amide (peptide)
peptide: Ac-CMLGRVYRPC-NH2
modifications: disulfide 1-10
SMILES: CSCC[C@@H]1NC(=O)[C@@H](NC(C)=O)CSSC[C@@H](C(N)=O)NC(=O)[C@@H]2CCCN2C(=O)[C@H](CCCNC(=N)N)NC(=O)[C@H](Cc2ccc(O)cc2)NC(=O)[C@H](C(C)C)NC(=O)[C@H](CCCNC(=N)N)NC(=O)CNC(=O)[C@H](CC(C)C)NC1=O
On to B2, for which, in experiment [3], the “% Activation at 10 µM” value is 74% and the “EC50” value came to 300 nM. In [4], this molecule registered an IC50 of 1.6 nM.

In the case of DFDMLRCMLGRVYRPCWQV (disulfide 7-16) [mammalian MCH (SEQ. ID. NO. 11)], in experiment [3], the “% Activation at 10 µM” value is 100%. Besides, the Activation % in experiment [5], in experiment [2], in [6], in experiment [7], in experiment [8] and in [9] was 100% each time.

For Ac-CMLGRVYRPCWQV (disulfide 1-10 (inferred)) [MCH analog SEQ. ID. NO. 12: Ac-Cys-Met-Leu-Gly-Arg-Val-Tyr-Arg-Pro-Cys-Trp-Gln-Val], in [3], the “% Activation at 10 µM” value came out at 3% and the midpoint of the response, the EC50, lay at 492 nM. In experiment [4], this molecule registered an IC50 of 6.4 nM.

B3: MCH analog SEQ. ID. NO. 15 (D-Arg^6) (peptide)
peptide: XCMLGRVYRPC
modifications: D-Arg^6; N-terminal acetyl, C-terminal amide, Cys-Cys disulfide as in SEQ. ID. NO. 7
notes: as for B1
Regarding B3, the IC50 in experiment [10] was found to be 0.46 nM. Besides, in [9], the Activation % was 86% and the “EC50” value was determined as 45 nM.

B4: truncated MCH analog SEQ. ID. NO. 7: Ac-Arg-Cys-Met-Leu-Gly-Arg-Val-Tyr-Arg-Pro-Cys-amide (peptide)
peptide: Ac-RCMLGRVYRPC-NH2
modifications: disulfide 2-11 (inferred)
notes: Corresponds to MCH positions 6-16; also called ID; NO; 7 MCH analog
As for B4, the concentration for half-maximal inhibition (IC50) in experiment [10] is 0.5 nM; in experiment [1], 1.4 nM; in experiment [11], 0.5 nM; in experiment [12], 1.4 nM; in [13], 1.4 nM; in experiment [4], 0.12 nM. In [14], this molecule came in with an IC50 of 1.4 nM. The “% Activation at 10 µM” value in experiment [3] was found to be 123%. Also, the “EC50” value in [3] was 18 nM; in [5], 20 nM; in experiment [2], 20 nM; in experiment [6], 20 nM; in experiment [7], 20 nM; in [8], 20 nM. Besides, the midpoint of the response in [9], the EC50, lay at 20 nM. For the same molecule, the Activation % in experiment [5], in experiment [2], in [6], in experiment [7], in [8] and in experiment [9] was 99% each time.

B5: MCH analog SEQ. ID. NO. 62 (position 13: Phe) (peptide)
peptide: Ac-RCMLGRVFRPC-NH2
modifications: disulfide 2-11
SMILES: CSCC[C@@H]1NC(=O)[C@@H](NC(=O)[C@H](CCCNC(=N)N)NC(C)=O)CSSC[C@@H](C(N)=O)NC(=O)[C@@H]2CCCN2C(=O)[C@H](CCCNC(=N)N)NC(=O)[C@H](Cc2ccccc2)NC(=O)[C@H](C(C)C)NC(=O)[C@H](CCCNC(=N)N)NC(=O)CNC(=O)[C@H](CC(C)C)NC1=O
notes: as for B1
As for B5, in experiment [7], the Activation % came out at 96% and it took 46 nM to reach a half-maximal effect (EC50). This molecule had an IC50 in experiment [14] of 1 nM.

B6: MCH analog SEQ. ID. NO. 64 (position 13: His) (peptide)
peptide: Ac-RCMLGRVHRPC-NH2
modifications: disulfide 2-11
SMILES: CSCC[C@@H]1NC(=O)[C@@H](NC(=O)[C@H](CCCNC(=N)N)NC(C)=O)CSSC[C@@H](C(N)=O)NC(=O)[C@@H]2CCCN2C(=O)[C@H](CCCNC(=N)N)NC(=O)[C@H](Cc2c[nH]cn2)NC(=O)[C@H](C(C)C)NC(=O)[C@H](CCCNC(=N)N)NC(=O)CNC(=O)[C@H](CC(C)C)NC1=O
notes: as for B1
For the molecule B6, in experiment [7], the Activation % stood at 66% and the “EC50” value was 3400 nM. Moreover, the IC50 in experiment [14] stood at 13.1 nM.

B7: MCH analog SEQ. ID. NO. 63 (position 13: Trp) (peptide)
peptide: Ac-RCMLGRVWRPC-NH2
modifications: disulfide 2-11
SMILES: CSCC[C@@H]1NC(=O)[C@@H](NC(=O)[C@H](CCCNC(=N)N)NC(C)=O)CSSC[C@@H](C(N)=O)NC(=O)[C@@H]2CCCN2C(=O)[C@H](CCCNC(=N)N)NC(=O)[C@H](Cc2c[nH]c3ccccc23)NC(=O)[C@H](C(C)C)NC(=O)[C@H](CCCNC(=N)N)NC(=O)CNC(=O)[C@H](CC(C)C)NC1=O
notes: as for B1
As for B7, in experiment [7], the Activation % turned out to be 83% and the “EC50” value is 890 nM. In experiment [14], the IC50 was determined as 3.8 nM.

B8: MCH analog SEQ. ID. NO. 74 (D-Pro^10,Ava^14,15) (peptide)
peptide: RCMLXRVYXXC
modifications: not fully specified; D-Pro^10; Ava (5-aminopentanoic acid) in place of positions 14,15; N-terminal acetyl, C-terminal amide, Cys-Cys disulfide as in SEQ. ID. NO. 7
notes: as for B1
The molecule B8 gave an IC50 in experiment [1] of 700 nM. The Activation % in experiment [2] turned out to be 3%.

B9: truncated MCH analog SEQ. ID. NO. 8: Ac-Arg-Cys-Met-Leu-Gly-Arg-Val-Phe-Arg-Pro-Cys-Tyr-amide (peptide)
peptide: Ac-RCMLGRVFRPCY-NH2
modifications: disulfide 2-11
SMILES: CSCC[C@@H]1NC(=O)[C@@H](NC(=O)[C@H](CCCNC(=N)N)NC(C)=O)CSSC[C@@H](C(=O)N[C@@H](Cc2ccc(O)cc2)C(N)=O)NC(=O)[C@@H]2CCCN2C(=O)[C@H](CCCNC(=N)N)NC(=O)[C@H](Cc2ccccc2)NC(=O)[C@H](C(C)C)NC(=O)[C@H](CCCNC(=N)N)NC(=O)CNC(=O)[C@H](CC(C)C)NC1=O
With B9, in [3], the “% Activation at 10 µM” value was 123% and the response was half-maximal at 36 nM (EC50). In experiment [4], this molecule registered an IC50 of 0.16 nM.

Consider Ac-RCM[Ava][Ava]RVY[Ava][Ava]C-NH2 (disulfide 2-11; not fully specified) [MCH analog SEQ. ID. NO. 76 (Ava^9,10,Ava^14,15)], for which, in [2], the Activation % amounted to 3% and the “EC50” value is more than 10000 nM. In addition, the IC50 in experiment [15] turned out to be 50 nM.

B10: MCH analog SEQ. ID. NO. 27 (Sar^10) (peptide)
peptide: RCMLXRVYRPC
modifications: sarcosine at position 10; N-terminal acetyl, C-terminal amide, Cys-Cys disulfide as in SEQ. ID. NO. 7
notes: as for B1
B10 had an Activation % in [5] of 95%. This molecule had an IC50 in [13] of 2.3 nM.

Regarding DFAMLRCMLGRVFRPCWQY (disulfide 7-16 (inferred)), the “% Activation at 10 µM” value in [3] came to 62.2%. The molecule further gave an IC50 in experiment [4] of 0.5 nM.

B11: truncated MCH analog SEQ. ID. NO. 10: Asp-Phe-Asp-Met-Ieu-Arg-Cys-Met-Ieu-Gly-Arg-Val-Tyr-Arg-Pro-Cys-amide (peptide)
peptide: DFDMLRCMLGRVYRPC-NH2
modifications: disulfide 7-16; N-terminus assumed
SMILES: CSCC[C@@H]1NC(=O)[C@@H](NC(=O)[C@H](CCCNC(=N)N)NC(=O)[C@H](CC(C)C)NC(=O)[C@H](CCSC)NC(=O)[C@H](CC(=O)O)NC(=O)[C@H](Cc2ccccc2)NC(=O)[C@@H](N)CC(=O)O)CSSC[C@@H](C(N)=O)NC(=O)[C@@H]2CCCN2C(=O)[C@H](CCCNC(=N)N)NC(=O)[C@H](Cc2ccc(O)cc2)NC(=O)[C@H](C(C)C)NC(=O)[C@H](CCCNC(=N)N)NC(=O)CNC(=O)[C@H](CC(C)C)NC1=O
As for B11, the “% Activation at 10 µM” value in experiment [3] was 99%. In experiment [4], this molecule showed an IC50 of 0.3 nM.

B12: MCH analog SEQ. ID. NO. 70 (Ava^9,10) (peptide)
peptide: Ac-RCM[Ava][Ava]RVYRPC-NH2
modifications: disulfide 2-11; not fully specified
notes: as for B1
In the case of B12, in experiment [1], the IC50 stood at 3.7 nM. This molecule also displayed an Activation % in [2] of 82%.

B13: MCH analog SEQ. ID. NO. 71 (D-Arg^6,Ava^9,10) (peptide)
peptide: Ac-[dR]CM[Ava][Ava]RVYRPC-NH2
modifications: disulfide 2-11; not fully specified
notes: as for B1
B13 returned an IC50 in experiment [1] of 3.7 nM. Further, in [2], the Activation % was 72%.

B14: MCH analog SEQ. ID. NO. 77 (Nle^8) (peptide)
peptide: RCXLGRVYRPC
modifications: norleucine at position 8; N-terminal acetyl, C-terminal amide, Cys-Cys disulfide as in SEQ. ID. NO. 7
notes: as for B1
In [1], B14 returned a half-inhibitory concentration (IC50) of 0.5 nM. The Activation % in experiment [2] stood at 105%.

B15: MCH analog SEQ. ID. NO. 25 (N-Me-Nle^8) (peptide)
peptide: RCXLGRVYRPC
modifications: N-methyl-norleucine at position 8; N-terminal acetyl, C-terminal amide, Cys-Cys disulfide as in SEQ. ID. NO. 7
notes: as for B1
On to B15, for which, in experiment [5], the Activation % was 110% and the concentration for a half-maximal effect (EC50) worked out at 20 nM. The IC50 in [13] turned out to be 0.16 nM.
